According to patent US20220290165:
Like-named read-outs stand apart in the source and are kept apart here.

B1: Trichoderma reesei pep2 (protein)
chain: MQPSFGSFLVTVLSASMAAGSVIPSTNANPGSFEIKRSANKAFTGRNGPLALARTYAKYGVEVPKTLVDAIQLVKSIQLAKRDSATVTATPDHDDIEYLVPVKIGTPPQTLNLDFDTGSSDLWVFSSDVDPTSSQGHDIYTPSKSTSSKKLEGASWNITYGDRSSSSGDVYHDIVSVGNLTVKSQAVESARNVSAQFTQGNNDGLVGLAFSSINTVKPTPQKTWYDNIVGSLDSPVFVADLRHDTPGSYHFGSIPSEASKAFYAPIDNSKGFWQFSTSSNISGQFNAVADTGTTLLLASDDLVKAYYAKVQGARVNVFLGGYVFNCTTQLPDFTFTVGEGNITVPGTLINYSEAGNGQCFGGIQPSGGLPFAIFGDIALKAAYVIFDSGNKQVGWAQKK
B2: Trichoderma reesei pep5 (protein)
chain: MKFHAAALTLACLASSASAGVAQPRADEVESAEQGKTFSLEQIPNERYKGNIPAAYISALAKYSPTIPDKIKHAIEINPDLHRKFSKLINAGNMTGTAVASPPPGADAEYVLPVKIGTPPQTLPLNLDTGSSDLWVISTDTYPPQVQGQTRYNVSASTTAQRLIGESWVIRYGDGSSANGIVYKDRVQIGNTFFNQQAVESAVNISNEISDDSFSSGLLGAASSAANTVRPDRQTTYLENIKSQLARPVFTANLKKGKPGNYNFGYINGSEYIGPIQYAAINPSSPLWEVSVSGYRVGSNDTKYVPRVWNAIADTGTTLLLVPNDIVSAYYAQVKGSTFSNDVGMMLVPCAATLPDFAFGLGNYRGVIPGSYINYGRMNKTYCYGGIQSSEDAPFAVLGDIALKAQFVVFDMGNKVVGFANKNTNV
B3: Trichoderma reesei pep3 (protein)
chain: MEAILQAQAKFRLDRGLQKITAVRNKNYKRHGPKSYVYLLNRFGFEPTKPGPYFQQHRIHQRGLAHPDFKAAVGGRVTRQKVLAKKVKEDGTVDAGGSKTGEVDAEDQQNDSEYLCEVTIGTPGQKLMLDFDTGSSDLWVFSTELSKHLQENHAIFDPKKSSTFKPLKDQTWQISYGDGSSASGTCGSDTVTLGGLSIKNQTIELASKLAPQFAQGTGDGLLGLAWPQINTVQTDGRPTPANTPVANMIQQDDIPSDAQLFTAAFYSERDENAESFYTFGYIDQDLVSASGQEIAWTDVDNSQGFWMFPSTKTTINGKDISQEGNTAIADTGTTLALVSDEVCEALYKAIPGAKYDDNQQGYVFPINTDASSLPELKVSVGNTQFVIQPEDLAFAPADDSNWYGGVQSRGSNPFDILGDVFLKSVYAIFDQGNQRFGAVPKIQAKQNLQPPQ
B4: Trichoderma reesei gap1 (protein)
chain: TVQSNWGGAILEGSGFTAASATVNVPRGGGGSNAAGSAWVGIDGASCQTAILQTGFDWYGDGTYDAWYEWYPEFAADFSGIDIRQGDQIAMSVVATSLTGGSATLENLSTGQKVTQNFNRVTAGSLCETSAEFIIEDFEECNSNGSNCQPVPFASFSPAITFSSATATRSGRSVSLSGAEITEVIVNNQDLTRCSVSGSSTLTCSYV

Assays:
[1] = molecular target: soybean trypsin inhibitor (SBTI) (UniProt P01070)
[2] = system: pepstatin A
[3] = molecular target: pepstatin A; remark: listed apart in the source
[4] = molecular target: LIP peptide

Chain of UniProt P01070 (P01070 25-205): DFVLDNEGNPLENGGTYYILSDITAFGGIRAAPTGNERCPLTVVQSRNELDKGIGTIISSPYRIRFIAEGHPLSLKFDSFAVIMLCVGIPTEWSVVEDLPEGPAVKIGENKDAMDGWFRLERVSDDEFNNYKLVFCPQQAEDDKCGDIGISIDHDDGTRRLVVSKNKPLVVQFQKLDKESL

Molecule | casein digestion by the SIP purified fractions at pH 5.5 [3] | further results
Trichoderma reesei slp2 |  | casein digestion by the SIP purified fractions at pH 5.5 [1]: The SBTI and chymostatin were able to inhibit the SLP2 protease in the purified sample
Trichoderma reesei pep4 |  | casein digestion by the SIP purified fractions at pH 5.5 [2]: a large portion of the SIP protease activity was inhibited by pepstatin A
B1 | a large portion of the SIP protease activity was inhibited by pepstatin A | 
B2 | a large portion of the SIP protease activity was inhibited by pepstatin A | 
B3 | a large portion of the SIP protease activity was inhibited by pepstatin A | 
B4 |  | casein digestion by the SIP purified fractions at pH 5.5 [4]: inhibited the protease activity slightly less compared to SIP inhibitor
